{"source": "paper doi:10.1101/2022.12.30.522206", "molecules": {"B1": {"name": "PduL (enzyme)", "chain": "MDKQQLETTVTKVLDEMRERPIPLGISNRHIHLCAEDYDRLFPNHPISEKKELLQPGQYAADQTVTLVGPKGQLKNVRLLGPLRSTSQVEISRTDARTLGIAAPLRMSGSIEGTPGVRLISPFAELDLASGVIVAQRHIHMSPLDALILRVSHGDKVSVAINGDERRLIFDNVAVRVSPDMRLEMHIDTDEANAAGADNPQAFATLVSPR"}}, "assay_in_all_cases": "native gel or EMSA", "key": {"[1]": {"target": "PduA* (PduA with a C-terminal 23 residue extension) (Salmonella typhimurium LT2)"}, "[2]": {"target": "PduA*(A63R) (Salmonella typhimurium LT2)"}, "[3]": {"target": "PduA* (PduA with a C-terminal 23 residue extension) (Salmonella typhimurium LT2)", "remark": "listed apart in the source"}}, "note": "Like-named read-outs stand apart in the source and are kept apart here.", "data": [{"molecule": "PduA* (PduA with a C-terminal 23 residue extension) (natural protein)", "values": [{"measurement": "stoichiometry N", "setting": "[1]", "value": 3, "unit": "hexamers"}]}, {"molecule": "PduA*(A63R) (natural protein)", "values": [{"measurement": "stoichiometry N", "setting": "[2]", "value": 3, "unit": "hexamers"}]}, {"molecule": "B1", "values": [{"measurement": "stoichiometry N", "setting": "[3]", "value": 1}, {"measurement": "stoichiometry N (PduL dimers per PduA trimer of hexamers)", "setting": "[3]", "value": 3}]}]}
